Laboratory results reported in patent US20240035010, “COMPOSITIONS COMPRISING A VARIANT POLYPEPTIDE AND USES THEREOF” (Arbor Biotechnologies, Inc., published 2024).

How the values were obtained:
[1] = target: T1, variant nuclease E154G combination (P14R, D32R, I61R, E311R, E154G); assay: cell_activity; PAM 5'-TTTA-3'; conditions: tags: pcDNA3.1 expression
T1 chain: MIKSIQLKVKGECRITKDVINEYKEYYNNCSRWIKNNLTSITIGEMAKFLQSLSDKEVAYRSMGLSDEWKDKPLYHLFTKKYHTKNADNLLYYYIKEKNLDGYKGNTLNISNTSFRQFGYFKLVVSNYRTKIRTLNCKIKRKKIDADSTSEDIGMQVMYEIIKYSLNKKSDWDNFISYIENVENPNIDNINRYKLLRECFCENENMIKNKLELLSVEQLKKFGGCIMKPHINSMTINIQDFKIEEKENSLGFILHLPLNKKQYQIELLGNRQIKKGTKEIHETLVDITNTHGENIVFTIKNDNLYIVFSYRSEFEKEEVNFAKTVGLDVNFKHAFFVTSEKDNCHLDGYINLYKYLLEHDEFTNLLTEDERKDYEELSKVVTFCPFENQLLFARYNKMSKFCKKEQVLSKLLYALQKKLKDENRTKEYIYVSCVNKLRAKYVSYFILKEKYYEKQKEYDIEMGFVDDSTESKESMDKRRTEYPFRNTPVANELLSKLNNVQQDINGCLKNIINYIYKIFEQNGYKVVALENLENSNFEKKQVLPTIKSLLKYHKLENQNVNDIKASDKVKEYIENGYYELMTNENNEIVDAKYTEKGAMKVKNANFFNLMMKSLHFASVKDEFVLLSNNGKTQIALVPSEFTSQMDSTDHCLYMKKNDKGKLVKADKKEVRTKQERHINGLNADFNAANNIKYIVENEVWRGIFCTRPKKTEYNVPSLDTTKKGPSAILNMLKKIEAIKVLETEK
Procedure, shortened: (§1)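 HEK293T cells were lipofected with nuclease plasmid (pcDNA3.1 backbone) plus RNA guide plasmid, with guide omitted in negative controls. After ~72 h cells were lysed in QuickExtract and % indels were derived from NGS reads, averaged over two bioreplicates and two technical replicates.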

[2] = target: T2, variant nuclease T338G combination (P14R, D32R, I61R, E311R, T338G); assay: cell_activity; PAM 5'-TTTA-3'; conditions: tags: pcDNA3.1 expression
T2 chain: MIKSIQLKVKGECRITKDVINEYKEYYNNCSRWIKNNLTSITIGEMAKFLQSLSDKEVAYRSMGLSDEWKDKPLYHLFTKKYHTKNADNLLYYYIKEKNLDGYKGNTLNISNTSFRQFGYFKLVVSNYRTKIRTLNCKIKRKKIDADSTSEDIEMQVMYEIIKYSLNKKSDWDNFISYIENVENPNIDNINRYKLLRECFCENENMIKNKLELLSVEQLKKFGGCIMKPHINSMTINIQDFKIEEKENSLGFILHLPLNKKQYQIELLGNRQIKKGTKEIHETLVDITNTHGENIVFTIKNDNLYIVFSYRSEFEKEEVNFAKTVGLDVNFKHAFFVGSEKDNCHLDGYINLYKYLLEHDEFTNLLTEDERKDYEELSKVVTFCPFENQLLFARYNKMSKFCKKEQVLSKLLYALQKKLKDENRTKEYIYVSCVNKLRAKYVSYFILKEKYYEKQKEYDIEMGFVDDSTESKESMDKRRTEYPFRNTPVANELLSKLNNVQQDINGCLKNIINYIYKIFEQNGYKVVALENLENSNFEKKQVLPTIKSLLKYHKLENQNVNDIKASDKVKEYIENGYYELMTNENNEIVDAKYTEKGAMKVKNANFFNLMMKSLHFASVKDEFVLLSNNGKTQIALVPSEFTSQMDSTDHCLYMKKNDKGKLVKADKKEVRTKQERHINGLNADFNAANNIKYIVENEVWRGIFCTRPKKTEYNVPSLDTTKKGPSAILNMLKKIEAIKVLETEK
Procedure, shortened: as §1

B1: VEGFA crRNA ; VEGFA target (ssRNA ; dsDNA)
RNA: CUUGUUGUAUAUGUCCUUUUAUAGGUAUUAAACAACUCCAGACCACCAAUGGGCAC
DNA 1: TCCAGACCACCAATGGGCAC
DNA 2: GTGCCCATTGGTGGTCTGGA
indel activity [1]: 2.65 fold of WT | indel activity [2]: 2.72 fold of WT
